Experimental data taken from patent US20100272721A1, “TREATMENT OF CANCER” (Biogen Idec MA Inc., priority 2005, published 2010).
Values belong to the molecule of their own block, whether it stands above or below them.

Experiments:
[1] = test system: Human pancreatic tumor cells BxPc3, Panc1 and MiaPaCa2; assay: cell invasion assay on matrigel-coated membranes in transwell plates; type: cell-based; conditions: Tweak 50 ng/ml; BxPc-3, Panc-1 and MiaPaCa; measured after 48 hours; FIG. 1
Method: FIG. 1 is a bar graph showing results from an invasion assay of human pancreatic cell lines with and without added Tweak (Tk), and in the presence or absence of an anti-Tweak antibody (p5g9). HGF is a positive control.
To measure the effect of Tweak on pancreatic tumor cell line invasiveness, cell invasion assays were performed. Human pancreatic tumor cells BxPc3, Panc1 and MiaPaCa2 were plated on matrigel-coated membranes in transwell plates. TWEAK was added to the medium, and the number of cells that invade was measured after 48 hours. BSA was used as a negative control and HGF as a positive control in these experiments.

[2] = test system: mammary epithelial line Eph4; assay: 3-D culture model system of the mammary epithelial line Eph4; type: cell-based; conditions: Eph4 3-D culture
Text: We detect Fn14 protein in human tumor cell lines and in xenograft and primary breast tumor samples. Fn14 expression is detected in the majority of human breast tumors but not in normal breast tissue samples. […] The capacity to promote proliferation, inhibit differentiation and induce invasion is consistent with a role for TWEAK in tumorigenesis.

[3] = test system: Human pancreatic cells (BxPc-3); assay: BxPc-3 xenograft pancreatic cancer model; type: in vivo; conditions: BxPc-3 subcutaneous in nude mice; IP administration started after 2 weeks; versus control antibody (P1.17) or PBS; FIG. 2
Method: FIG. 2 is a graph showing growth of human pancreatic tumor cell line BxPc-3 in a xenograft animal model, with and without anti-Tweak antibody (P2D10) treatment.
Human pancreatic cells (BxPc-3) were injected subcutaneously into nude mice. After 2 weeks, when the tumors were […], the mice (9-10 per group) were treated with an anti-TWEAK antibody (P2D10), a control antibody (P1.17) or PBS, by IP administration.

matrix metalloproteinase MMP-9 expression ([2]; following TWEAK treatment): significantly up-regulated
B1: Tweak: TNF-like weak inducer of apoptosis, a member of the tumor-necrosis factor (TNF) superfamily of cytokines (protein, listed as Homo sapiens)
chain: MAARRSQRRRGRRGEPGTALLVPLALGLGLALACLGLLLAVVSLGSRASLSAQEPAQEELVAEEDQDPSELNPQTEESQDPAPFLNRLVRPRRSAPKGRKTRARRAIAAHYEVHPRPGQDGAQAGVDGTVSGWEEARINSSSPLRYNRQIGEFIVTRAGLYYLYCQVHFDEGKAVYLKLDLLVDGVLALRCLEEFSATAASSLGPQLRLCQVSGLLALRPGSSLRIRTLPWAHLKAAPFLTYFGLFQVH
invasion of human pancreatic cell lines (number of cells that invade) [1]: induced invasion
morphogenic phenotype (proliferation, invasiveness, functional differentiation) ([2]; TWEAK treatment): induces a dramatic branching morphogenic phenotype

B2: P2D10: exemplary murine anti-Tweak antibody; heavy chain variable domain SEQ ID NO:3, light chain variable domain SEQ ID NO:4 (antibody, listed as Mus musculus, V domains shown)
VH: EVQLVESGGGLVRPGGSLKLFCAASGFTFSRYAMSWVRQSPEKRLEWVAEISSGGSYPYYPDTVTGRFTISRDNAKNTLYLEMSSLKSEDTAMYYCARVLYYDYDGDRIEVMDYWGQGTAVIVSS
VL: DVVMTQSPLSLSVSLGDQASISCRSSQSLVSSKGNTYLHWYLQKPGQSPKFLIYKVSNRFSGVPDRFSGSGSGTDFTLKISRVAAEDLGVYFCSQSTHFPRTFGGGTTLEIK
tumor size [3]: statistically significant reduction in tumor size
